The values that follow come from PMC4666388.

This experiment deals with GST-HP1α (full-length human heterochromatin protein 1 α with N-terminal GST) (human) (UniProt P45973). The experiment is described as follows: pull-down; GST-HP1 anchored on GSH-Sepharose (80 pmol), 1.2 μg native oligo-nucleosomes from HeLa; absence of MgCl2; 50 mM NaCl, 20 mM Tris-HCl pH 7.4, room temperature 30 min; H3K9me3 and H4 detected by western blot.
Chain of UniProt P45973 (P45973 whole entry): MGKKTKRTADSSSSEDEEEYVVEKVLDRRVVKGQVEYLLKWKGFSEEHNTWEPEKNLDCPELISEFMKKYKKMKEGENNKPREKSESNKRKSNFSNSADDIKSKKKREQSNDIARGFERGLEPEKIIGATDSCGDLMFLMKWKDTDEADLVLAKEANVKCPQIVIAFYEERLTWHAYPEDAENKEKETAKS

For the substance “native oligo-nucleosomes prepared from HeLa cell nuclei (H3K9me3-nucleosomes detected) (complex)”, the percent of input bound is 18 % of input.
